{
  "source": "paper PMC8006934",
  "about": "(2021)",
  "binders": {"B1": {"name": "C-reactive protein (native CRP from human fluid) (natural protein)", "chain": "QTDMSRKAFVFPKESDTSYVSLKAPLTKPLKAFTVCLHFYTELSSTRGYSIFSYATKRQDNEILIFWSKDIGYSFTVGGSEILFEVPEVTVAPVHICTSWESASGIVEFWVDGKPRVRKSLKKGYTVGAEASIILGQEQDSFGGNFEGSQSLVGDIGNVNMWDFVLSPDEINTIYLGGPFSPNVLNWRALKYEVQGEVFTKPQLWP"}},
  "experiment_in_all_cases": "SPR",
  "key": {"[1]": {"biological_target": "T1, FcγRIa, human, C-terminally biotinylated (human, UniProt P12314 16-292, biotin, C-terminal)", "T1 chain": "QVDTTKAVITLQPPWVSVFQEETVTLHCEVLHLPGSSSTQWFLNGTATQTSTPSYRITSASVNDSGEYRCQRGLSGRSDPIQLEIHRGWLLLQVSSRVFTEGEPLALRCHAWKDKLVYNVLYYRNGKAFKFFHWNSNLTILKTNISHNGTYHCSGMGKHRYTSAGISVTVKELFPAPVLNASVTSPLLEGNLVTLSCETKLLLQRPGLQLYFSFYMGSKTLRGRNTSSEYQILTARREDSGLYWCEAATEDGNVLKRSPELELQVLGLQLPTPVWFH"}, "[2]": {"biological_target": "FcγRIIIa-V158, human, C-terminally biotinylated (human, UniProt P08637 17-208, p.176Val (V158), biotin, C-terminal)", "sequence (P08637 other isoform, or with tags, fused parts or gaps p.176Val (V158))": "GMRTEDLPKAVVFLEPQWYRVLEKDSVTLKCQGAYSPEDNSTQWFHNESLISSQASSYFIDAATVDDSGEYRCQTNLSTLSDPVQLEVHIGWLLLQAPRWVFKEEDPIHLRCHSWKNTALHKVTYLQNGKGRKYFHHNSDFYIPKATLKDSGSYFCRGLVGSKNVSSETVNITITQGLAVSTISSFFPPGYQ"}, "[3]": {"biological_target": "T2, FcγRIIa-H131, human, C-terminally biotinylated (human, UniProt P12318 34-217, biotin, C-terminal)", "T2 chain": "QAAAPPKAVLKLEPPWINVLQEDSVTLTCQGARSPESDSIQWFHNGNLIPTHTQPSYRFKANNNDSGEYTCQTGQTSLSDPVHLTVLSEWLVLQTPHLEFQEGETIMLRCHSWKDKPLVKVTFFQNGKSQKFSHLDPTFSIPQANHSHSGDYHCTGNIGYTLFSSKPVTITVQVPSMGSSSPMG"}, "[4]": {"biological_target": "T3, FcγRIIa-R131, human, C-terminally biotinylated (human, biotin, C-terminal)", "T3 chain": "T2 chain with H134R"}, "[5]": {"biological_target": "FcγRIIIa-F158, human, C-terminally biotinylated (human, UniProt P08637 17-208, biotin, C-terminal)", "sequence (P08637 17-208)": "as the sequence (P08637 other isoform, or with tags, fused parts or gaps p.176Val (V158)) above, with V160F counted along it"}},
  "note": "Where a chain is given by its changes, count along the chain named.",
  "data": [
    {"binder": "B1", "values": [
      {"measurement": "Kd", "setting": "[1]", "result": 3.4, "unit": "µM"},
      {"measurement": "Kd", "setting": "[2]", "result": 4.4, "unit": "µM"},
      {"measurement": "Kd", "setting": "[3]", "result": 4.5, "unit": "µM"},
      {"measurement": "Kd", "setting": "[4]", "result": 4.6, "unit": "µM"},
      {"measurement": "Kd", "setting": "[5]", "result": 4.9, "unit": "µM"}
    ]}
  ]
}
